Like-named read-outs stand apart in the source and are kept apart here.
Columns and labels:
[1] = Aqueous hydrolysis at pH 10; details: pH 10, 20° C., within 24 hours
Description: (§1) Experiments were performed to determine the fate of the irinotecan-containing PEG species in 4-arm-PEG-Gly-Irino-20K mixed TFA.chloride salt under transesterification (K2CO3 in CH3OH, 20° C.) and aqueous hydrolysis (pH 10, 20° C.) conditions.

[2] = Transesterification of irinotecan-containing PEG species; details: K2CO3 in CH3OH, 20° C., after 45 minutes
Description: as §1

[3] = 40° C. and 75% relative humidity, over 3 months
Description: Compositions containing varying amounts of protonated irinotecan, as well as differing in the amount of TFA versus HCl salt were examined.
Samples were taken and analyzed on a periodic basis over the course of the studies.
FIG. 2 and FIG. 3 show another set of data obtained from the sample containing >99% HCl salt (<1% free base, squares) and a sample consisting of 86% total salts (14% free base, diamonds) that were stored at 40° C. and 75% relative humidity. […] The increase in smaller PEG species is indicative of decomposition of the PEG backbone to provide multiple PEG species.

Row | Substance | aqueous hydrolysis reaction completion [1] [%] | transesterification reaction completion [2] [%] | free irinotecan (after 4 weeks at 40° C.) [%] | total product related species (after 4 weeks at 40° C.) [%] | free irinotecan (initial value, before storage) [%] | total product related species (initial value, before storage) [%] | increase in free irinotecan (stability with respect to hydrolysis) [3] | increase in smaller PEG species (PEG backbone decomposition) ([3]; listed as HCl salt) | increase in smaller PEG species (PEG backbone decomposition) ([3]; listed as hydrochloride salt)
1 | Pentaerythritolyl-4-Arm-(PEG-1-Methylene-2Oxo-Vinylamino Acetate Linked-Irinotecan)-20K [listing 1 of 2 here] | > 99 | > 99 |  |  |  |  |  |  | 
2 | Pentaerythritolyl-4-Arm-(PEG-1-Methylene-2Oxo-Vinylamino Acetate Linked-Irinotecan)-20K [listing 2 of 2 here] |  |  | 1.25 | 97.0 | 0.4 | 98.7 | greater hydrolytic stability than either the free base or mixed TFA.hydrochloride salt | more prone to PEG backbone decomposition than the mixed salt sample containing 14% free base | greater degree of backbone degradation

— patent US9226969B2, “Salt form of a multi-arm polymer-drug conjugate” (priority 2009, dated 2016)
